US20130344069A1 (SORRENTO THERAPEUTICS, published 2013)

Legend:
Insulin Receptor = Insulin Receptor (UniProt P06213-2 28-944, limits assumed); assay: ELISA, one condition
[1] = molecular target: T1, IGF1R on MCF7 breast cancer cells (UniProt P08069 31-1367, limits assumed); assay: flow cytometry on MCF7 cells, PE goat anti-human IgG secondary, median FL2-H, non-linear regression fit, the concentration axis is LogM
T1 construct: whole, on cells; Endogenous receptor on MCF7 cells; also called MCF7 cells expressing IGF1R
Procedure: (§1) This example illustrates in vitro data for anti-IGF1R antibodies cellular binding EC₅₀ measurements. […] In this example, the experimental procedure is as follows: 50,000 MCF7 breast cancer cells were aliquoted into the wells of a 96-well, v-bottom plate in 100 μl FACS Buffer (PBS+2% FBS). Cells were spun down, washed 1× with FACS Buffer, and then resuspended in 25 μl of antibody solution in triplicate. After 0.5 hr incubation, cells were washed 1× with FACS Buffer and resuspended in 50 μl PE-conjugated, goat anti-human IgG (γ-chain specific) secondary antibody (Southern Biotech Cat #2040-09). Cells were further incubated for 0.5 hr and then washed 1× with FACS Buffer. Cells were resuspended in 25 μl FACS Buffer and the median fluorescence intensity in the FL2-H channel was determined using the Intellicyt HTFC flow cytometer.
(§2) While these values range over orders of magnitude, all antibodies show strong, specific binding to MCF7 cells expressing IGF1R. Data was collected on the Intellicyt HTFC flow cytometer, processed using FlowJo software, and analyzed and plotted in Graph Pad Prizm using non-linear regression fit. Data points are shown as the median fluorescence intensity (MFI) of positively labeled cells +/− Std Error.

[2] = molecular target: T1, IGF1R on MCF7 breast cancer cells; assay: flow cytometry, binding to MCF7 cells, PE anti-human IgG detection
Procedure: as §1, §2

[3] = molecular target: T1, IGF1R on MCF7 breast cancer cells; assay: cell-based or functional assay
rhIGF1R = molecular target: T2, rhIGF1R (human, UniProt P08069 31-932, limits assumed); assay: BLI, Forte Bio Octet Red; B9 on anti-hIgG Fc capture sensor
T2 construct: Recombinant protein used in the Octet measurements; also called recombinant human IGF1R
T2 sequence (P08069 31-932 limits assumed): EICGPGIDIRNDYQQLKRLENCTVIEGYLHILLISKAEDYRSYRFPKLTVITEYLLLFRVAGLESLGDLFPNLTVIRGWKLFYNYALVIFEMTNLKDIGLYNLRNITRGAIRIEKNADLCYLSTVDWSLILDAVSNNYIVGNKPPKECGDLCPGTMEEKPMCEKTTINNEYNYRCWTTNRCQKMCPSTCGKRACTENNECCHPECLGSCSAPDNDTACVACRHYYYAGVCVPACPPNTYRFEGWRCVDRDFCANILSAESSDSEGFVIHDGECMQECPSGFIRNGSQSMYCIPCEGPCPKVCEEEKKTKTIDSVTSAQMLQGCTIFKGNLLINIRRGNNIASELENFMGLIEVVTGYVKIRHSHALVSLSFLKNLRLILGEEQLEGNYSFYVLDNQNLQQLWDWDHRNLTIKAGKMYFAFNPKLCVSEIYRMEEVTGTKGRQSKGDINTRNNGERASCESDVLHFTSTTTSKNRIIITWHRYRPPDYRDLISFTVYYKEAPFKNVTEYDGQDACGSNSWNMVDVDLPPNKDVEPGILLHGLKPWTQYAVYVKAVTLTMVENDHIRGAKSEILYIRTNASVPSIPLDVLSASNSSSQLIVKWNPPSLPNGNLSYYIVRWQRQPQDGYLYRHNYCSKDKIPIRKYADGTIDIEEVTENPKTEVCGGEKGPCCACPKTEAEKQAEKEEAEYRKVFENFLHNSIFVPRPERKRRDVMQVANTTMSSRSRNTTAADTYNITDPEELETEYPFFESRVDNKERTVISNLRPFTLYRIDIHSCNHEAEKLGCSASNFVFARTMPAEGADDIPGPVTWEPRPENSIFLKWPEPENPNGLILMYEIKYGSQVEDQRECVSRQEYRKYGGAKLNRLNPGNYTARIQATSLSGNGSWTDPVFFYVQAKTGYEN

T1 sequence (P08069 31-1367 limits assumed): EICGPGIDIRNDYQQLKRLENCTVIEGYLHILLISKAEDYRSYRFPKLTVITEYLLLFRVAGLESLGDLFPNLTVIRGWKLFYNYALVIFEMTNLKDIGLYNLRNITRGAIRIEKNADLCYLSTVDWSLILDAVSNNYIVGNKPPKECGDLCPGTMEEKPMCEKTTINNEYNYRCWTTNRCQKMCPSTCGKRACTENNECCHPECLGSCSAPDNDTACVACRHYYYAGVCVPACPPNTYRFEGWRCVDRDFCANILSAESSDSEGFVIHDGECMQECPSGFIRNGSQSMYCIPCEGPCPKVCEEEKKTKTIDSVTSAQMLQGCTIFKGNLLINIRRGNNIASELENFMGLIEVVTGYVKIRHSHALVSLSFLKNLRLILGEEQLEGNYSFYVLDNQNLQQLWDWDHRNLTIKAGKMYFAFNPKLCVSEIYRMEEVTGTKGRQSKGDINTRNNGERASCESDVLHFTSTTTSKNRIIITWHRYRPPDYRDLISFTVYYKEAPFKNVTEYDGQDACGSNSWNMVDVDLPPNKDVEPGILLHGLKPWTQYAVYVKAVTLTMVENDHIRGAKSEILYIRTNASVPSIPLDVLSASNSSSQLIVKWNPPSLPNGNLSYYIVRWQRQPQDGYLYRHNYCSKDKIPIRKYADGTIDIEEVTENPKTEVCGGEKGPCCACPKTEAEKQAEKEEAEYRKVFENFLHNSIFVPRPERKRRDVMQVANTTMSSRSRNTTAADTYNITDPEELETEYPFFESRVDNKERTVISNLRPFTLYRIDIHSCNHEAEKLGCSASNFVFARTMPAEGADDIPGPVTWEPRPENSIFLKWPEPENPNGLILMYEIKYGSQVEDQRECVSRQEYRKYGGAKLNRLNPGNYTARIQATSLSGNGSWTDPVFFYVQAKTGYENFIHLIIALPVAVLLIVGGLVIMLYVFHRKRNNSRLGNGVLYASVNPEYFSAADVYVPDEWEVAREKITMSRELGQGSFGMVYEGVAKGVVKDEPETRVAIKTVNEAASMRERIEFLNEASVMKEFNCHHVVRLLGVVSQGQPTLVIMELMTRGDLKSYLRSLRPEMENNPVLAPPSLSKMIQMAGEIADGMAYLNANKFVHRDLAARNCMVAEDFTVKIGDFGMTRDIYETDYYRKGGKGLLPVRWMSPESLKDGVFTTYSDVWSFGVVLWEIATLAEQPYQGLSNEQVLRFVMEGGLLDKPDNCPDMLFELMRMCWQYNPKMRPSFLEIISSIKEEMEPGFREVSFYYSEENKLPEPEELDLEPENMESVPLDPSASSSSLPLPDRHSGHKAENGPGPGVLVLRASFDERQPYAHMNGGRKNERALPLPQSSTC
Insulin Receptor, sequence (P06213 other isoform, or with tags, fused parts or gaps limits assumed): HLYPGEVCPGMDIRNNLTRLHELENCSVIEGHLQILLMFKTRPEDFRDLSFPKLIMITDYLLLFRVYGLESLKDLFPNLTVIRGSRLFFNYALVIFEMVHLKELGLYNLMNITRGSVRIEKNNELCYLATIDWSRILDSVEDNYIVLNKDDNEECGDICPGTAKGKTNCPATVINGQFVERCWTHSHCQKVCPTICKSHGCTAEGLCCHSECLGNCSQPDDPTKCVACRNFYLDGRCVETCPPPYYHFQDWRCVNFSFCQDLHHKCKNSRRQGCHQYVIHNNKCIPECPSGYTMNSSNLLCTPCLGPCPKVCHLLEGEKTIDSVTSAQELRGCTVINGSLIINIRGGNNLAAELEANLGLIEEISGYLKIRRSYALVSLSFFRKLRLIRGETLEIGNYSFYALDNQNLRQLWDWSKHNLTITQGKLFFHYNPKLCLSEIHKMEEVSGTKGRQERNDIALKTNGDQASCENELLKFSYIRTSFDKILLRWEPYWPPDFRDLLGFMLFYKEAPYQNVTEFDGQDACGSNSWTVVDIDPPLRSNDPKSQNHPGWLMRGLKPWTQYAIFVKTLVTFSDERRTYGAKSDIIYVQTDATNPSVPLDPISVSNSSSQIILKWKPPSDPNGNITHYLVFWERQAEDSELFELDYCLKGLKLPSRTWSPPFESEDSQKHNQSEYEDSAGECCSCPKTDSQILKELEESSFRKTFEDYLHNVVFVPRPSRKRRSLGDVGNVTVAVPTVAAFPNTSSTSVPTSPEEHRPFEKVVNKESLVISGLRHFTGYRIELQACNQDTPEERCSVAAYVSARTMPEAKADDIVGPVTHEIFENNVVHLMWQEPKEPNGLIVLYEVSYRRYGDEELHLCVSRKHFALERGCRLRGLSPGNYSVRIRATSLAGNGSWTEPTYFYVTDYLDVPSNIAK

| binding result (Insulin Receptor) | EC50 [1] | EC50 [2] | IC50 of inhibition of IGF1-stimulated IGF1R auto-phosphorylation in MCF7 cells [3] | Kd (rhIGF1R) | Binder |
| --- | --- | --- | --- | --- | --- |
| no binding (tested: not given) | 5.83 nM |  |  |  | anti-IGF1R antibody B10 (antibody, V domains shown, Fully human antibody of an IgG class; also called clone B10) VH: QVQLVQSGAEVKKPGASVKVSCKGSGYNFPTQAIHWVRQAPGQRLEWMGWTNTANGNAKYSQKFQGRVTITRDTYASTDYMELSSLTSEDTAIYYCTRDRFTGSGTYGMDVWGQGTTVTVSS VL: SYELMQPSSVSVSPGQTARITCSGDLLTRRYARWFQQKPGQAPLLIIYRDTVRPSGIPERFSASSSGATITLTISGAQLEDEADYYCYSATDNNVVFGGGTKLTVL |
|  | 0.705 nM |  |  |  | anti-IGF1R antibody A6 (antibody, V domains shown, also called clone A6) VH: QVQLVQSGAEVMKPGASVKVSCKASGYTFTSYGISWVRQAPGQGLEWMGWISAYNGNTNYAQMLQGRVTMTTDTSTSTAYMELRSLRSDDTAVYYCARRGLSSYYYGMDVWGQGTTVTVSS VL: QPVLTQPPSVSAAPGQKVTISCSGGTSNVANNYVSWYQQLPGTAPKLLIYGNSNRPSGVPDRFSGSKSGTSASLAITGLQAEDEADYYCQSYDTSLSGYVFGSGTKVTVL |

More lines, now with the values behind:

| Binder | binding result (Insulin Receptor) | EC50 [1] | EC50 [2] | IC50 of inhibition of IGF1-stimulated IGF1R auto-phosphorylation in MCF7 cells [3] | Kd (rhIGF1R) |
| --- | --- | --- | --- | --- | --- |
| anti-IGF1R antibody B9 (antibody, V domains shown, Fully human antibody of an IgG class (captured on an anti-hIgG Fc sensor, detected with anti-human IgG); also called clone B9) VH: EVQLLESGGGLVQPGGSLRLSCAASGFTFSSYEMNWVRQAPGKGLEWVSYISTGDSTRSYADSVRGRFTISRDNAKNSLYLQMNSLRAEDTAVYYCARESGTWYGGWYFDLWGRGTLVTVSS VL: QSVVTQPPSVSAAPGQKVTISCAGSTSNIGNNFVSWYQQLPGTAPKLLIYDNNKRPSEIPDRFSGSKSGTSATLGITGLQTGDEADYYCVTWDSSLSVVLFGGGTKVTVL | no binding (tested: not given) | 0.0374 nM | 0.0037 nM | 0.094 nM | 1.25 nM |
| anti-IGF1R antibody C8 (antibody, V domains shown, Fully human antibody of an IgG class; also called clone C8) VH: QVQLVQSGAEVKKPGSSVKVSCKASGGSFNSFSISWVRQAPGQGLEWMGGITPMFGIGDNAQKFQDRVAITADESMSTFYMELSNLRFEDTAMYFCAREVGGLGFDVWGQGTTVTVSS VL: VIWMTQSPSSLSASVGDRVTFTCQASQHISKYLNWYQQKPGKAPKLLIYDASNLETGVPSRFSGSGSATDFTLTISSLQPEDFATYYCQQSYLTSYTFGQGTKVDIK | no binding (tested: not given) | 16.1 nM |  |  |  |
